Patent publication US20220363757A1 (SYMPHOGEN A S, published 2022)
Positions count from the first letter of the chain named.

T1: human LAG-3 domain 1-2 Fc fusion, point mutation #36 P89A (human, UniProt P18627 23-266)
T1 construct: not shown: human IgG1 Fc, AA P101-K330
T1 sequence: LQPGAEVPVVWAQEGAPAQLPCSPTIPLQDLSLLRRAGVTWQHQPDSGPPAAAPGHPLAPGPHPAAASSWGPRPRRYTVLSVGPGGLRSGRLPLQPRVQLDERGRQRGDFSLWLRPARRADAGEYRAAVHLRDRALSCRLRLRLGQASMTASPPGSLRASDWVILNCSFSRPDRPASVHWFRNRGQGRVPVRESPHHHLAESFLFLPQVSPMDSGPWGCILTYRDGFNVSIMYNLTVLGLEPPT

T2: human LAG-3 domain 1-2 Fc fusion, point mutation #74 P138A (human, UniProt P18627 23-266)
T2 construct: not shown: human IgG1 Fc, AA P101-K330
T2 sequence: T1 sequence with A67P, P116A

T3: human LAG-3 domain 1-2 Fc fusion, point mutation #11 L56A (human, UniProt P18627 23-266)
T3 construct: not shown: human IgG1 Fc, AA P101-K330
T3 sequence: T1 sequence with L34A, A67P

T4: human LAG-3 domain 1-2 Fc fusion, point mutation #64 E124A (human, UniProt P18627 23-266)
T4 construct: not shown: human IgG1 Fc, AA P101-K330
T4 sequence: T1 sequence with A67P, E102A

T5: human LAG-3 domain 1-2 Fc fusion, point mutation #76 D143A (human, UniProt P18627 23-266)
T5 construct: not shown: human IgG1 Fc, AA P101-K330
T5 sequence: T1 sequence with A67P, D121A

T6: human LAG-3 domain 1-2 Fc fusion, point mutation #9 D52A (human, UniProt P18627 23-266)
T6 construct: not shown: human IgG1 Fc, AA P101-K330
T6 sequence: T1 sequence with D30A, A67P

T7: human LAG-3 domain 1-2 Fc fusion, point mutation #66 G126A (human, UniProt P18627 23-266)
T7 construct: not shown: human IgG1 Fc, AA P101-K330
T7 sequence: T1 sequence with A67P, G104A

T8: human LAG-3 domain 1-2 Fc fusion, point mutation #8 Q51A (human, UniProt P18627 23-266)
T8 construct: not shown: human IgG1 Fc, AA P101-K330
T8 sequence: T1 sequence with Q29A, A67P

T9: human LAG-3 domain 1-2 Fc fusion, point mutation #61 R119A (human, UniProt P18627 23-266)
T9 construct: not shown: human IgG1 Fc, AA P101-K330
T9 sequence: T1 sequence with A67P, R97A

B1: Fab fragment of antibody 15532 (Fab, V domains shown, not shown: a dimerising Fc or GST)
VH: QVQLQQWGAGLLRPSETLSLTCAVYGESFSGYYWNWIRQPPGKGLEWIGEINHSGSTNYNPSLKSRVTISVDTSKTQFSLKLSSVTAADTAVYYCARGWDLLDWNDYWNEYWGQGTLVTVSS
VL: EIVLTQSPATLSLSPGERATLSCRASQSVSSYLAWYQQKPGQAPRLLIYDASNRATGIPARFSGSGSGTDFTLTISSLEPEDFAVYYCQQRSNWPLTFGGGTKVEIKR
notes: monomeric Fab made by GingisKHAN digestion of the IgG1
B2: Fab fragment of antibody 15011 (Fab, V domains shown, not shown: a dimerising Fc or GST)
VH: EVQLLESGGGLVQPGGSLRLSCAASGFDFRSYAMMWVRQAPGKGLEWVGGINGEVGGSNTYYAPAVKGRATISRDNSKNTLYLQMNSLRAEDTAVYYCVKGAGACGICNDDIDAWGQGTLVTVSS
VL: SYELTQDPAVSVALGQTVRITCSGAGSYAGSYYYGWHQQKPGQAPVTVIYDNDKRPSNIPDRFSGSSSGNTASLTITGAQAEDEADYYCGSTNDNDDGGLFGSGTKVTVLG
notes: as for B1
B3: Fab fragment of antibody 15431 (Fab, V domains shown, not shown: a dimerising Fc or GST)
VH: QVQLQQSGPGLVKPSQTLSLTCAISGDSVSSNSAAWNWIRQSPSRGLEWLGRTYYRSKWYNDYAVSVKSRITINPDTSKNQFSLQLNSVTPEDTAVYYCARDDDWNDFDYWGQGTLVTVSS
VL: B1 VL
notes: as for B1
B4: Fab fragment of antibody 15572 (Fab, V domains shown, not shown: a dimerising Fc or GST)
VH: QLQLQESGPGLVKPSETLSLTCTVSGDSISSSSYYWGWIRQPPGKGLEWIGSIFYSGNTYYNPSLKSRVTISVDTSKNQFSLKLSSVTAADTAVYYCAREDDFLTDYYGAFDIWGQGTMVTVSS
VL: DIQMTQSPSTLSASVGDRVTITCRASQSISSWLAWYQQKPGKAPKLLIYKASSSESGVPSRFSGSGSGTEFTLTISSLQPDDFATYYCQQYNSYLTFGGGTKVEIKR
notes: as for B1

Legend:
Experiment in all cases: SPR, Fab over captured mutant LAG-3-Fc;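 note: fc fusion variants captured on anti-human IgG Fc sensor, Fab injected with association then dissociation phases, KD obtained from Langmuir one-to-one fit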
[1] = target: T1, human LAG-3 domain 1-2 Fc fusion, point …
Procedure: (§1) The LAG-3 fusion proteins were immobilized onto a G-a-hu-IgG Fc SensEye® (Ssens BV, The Netherlands) for 15 minutes using a Continuous Flow Microspotter (CFM, Wasatch Microfluidics, Salt Lake City, US). After spotting, the SensEye® was positioned in an IBIS MX96 biosensor and captured proteins were evaluated for binding affinity. […] Fab association was performed for 15 minutes and antigen dissociation was performed for 15 minutes. The recorded binding responses were fitted to a simple Langmuir 1:1 binding model with Scrubber 2 software for calculation of the on-rate (kon or ka), off-rate (koff or kd) and affinity (KD) constants.

[2] = target: T2, human LAG-3 domain 1-2 Fc fusion, point …
Procedure: as §1

[3] = target: T3, human LAG-3 domain 1-2 Fc fusion, point …
Procedure: as §1

[4] = target: T4, human LAG-3 domain 1-2 Fc fusion, point …
Procedure: as §1

[5] = target: T5, human LAG-3 domain 1-2 Fc fusion, point …
Procedure: as §1

[6] = target: T6, human LAG-3 domain 1-2 Fc fusion, point …
Procedure: as §1

[7] = target: T7, human LAG-3 domain 1-2 Fc fusion, point …
Procedure: as §1

[8] = target: T8, human LAG-3 domain 1-2 Fc fusion, point …
Procedure: as §1

[9] = target: T9, human LAG-3 domain 1-2 Fc fusion, point …
Procedure: as §1

Binder | KD mutant/KD wild type [1] | KD mutant/KD wild type [2] | KD mutant/KD wild type [3] | KD mutant/KD wild type [4] | KD mutant/KD wild type [5] | KD mutant/KD wild type [6] | KD mutant/KD wild type [7] | KD mutant/KD wild type [8] | KD mutant/KD wild type [9] | binding result [2] | binding result [4] | binding result [5] | binding result [6] | binding result [9]
B1 | 14.2 fold | 2.7 fold | 1.2 fold | 1.8 fold | 3.8 fold | 1.7 fold | 0.9 fold | 0.9 fold | 3.2 fold | – | – | – | – | –
B2 | 0.9 fold | 0.7 fold | 0.7 fold | 0.8 fold | 0.5 fold | 0.7 fold | 0.9 fold | 0.8 fold | 0.6 fold | – | – | – | – | –
B3 | 0.8 fold | – | 0.3 fold | – | – | – | 0.9 fold | 0.7 fold | – | no binding (tested: 300 nM) | no binding (tested: 300 nM) | no binding (tested: 300 nM) | no binding (tested: 300 nM) | no binding (tested: 300 nM)
B4 | 0.8 fold | – | 0.7 fold | – | – | – | 0.9 fold | 0.6 fold | – | no binding (tested: 300 nM) | no binding (tested: 300 nM) | no binding (tested: 300 nM) | no binding (tested: 300 nM) | no binding (tested: 300 nM)
